Data reported in the DeepSol protein solubility set.

Assay: soluble on expression in E. coli; label from the status in PepcDB or PDB records

Sequence	soluble on expression in E. coli
MKELTNEELRGIQLEQLKYIDRICRENGIEYTLAGGSLIGAIRHGGYIPWDDDIDIELTRPHYDHLISVLMDQLPNEKYALLHYKVRETYLPFAKLYDTRTSFTSKIDNLNRGTGVFLDIFPMDILPDNEEERQVFKKEFLKKAIQLTASNPHGLDFASSSKKIYFWGKLVLWMPQHIRFYGKYRILAEKLDEFMQKYRNSDNQLISYLYTGYKKAIFPKEIWEEYEDVKFEGLTARKLKNHEEYLTRQYGDYMKLEHHHHHH	not soluble
MGSDKIHHHHHHNSDVPENTHLVSKEVQAAFNAKYPQAKDVEWELKGDYAVADFYWDGGEHSAWFNPLSAAWYMTETDVRYENLPEPVLAAHKAGKYADWRVDDVDKLTREGMETLYVIEVEKGESELDLFYSSTGILVKTVVDTGHEEDYDDYLPQPDANGIIAIVKQKYPNATIVEIEREKGLQEVTILDENKEKEVYFNERNEWMGTSWDVQVANLPEAVKKSVMEKYSDYVIDDADYVVTPDNEWYILDLENKQIDKELKVKVDKDGVWL	not soluble
MAHHHHHHMKLLSSVGRLSVVAGGLSLIPYTFIYDVDGGERCVMFNRFGGVSENTYGEGSHFYIPWFQTPYIYDIKMKPKVINTTTGTRDLQIVTLSLRLLFRPHTKQLPYLHSTLGPDYDERVLPSIGNEVLKAVVAKYNAESLLTQRDKISKEIRESITARAKHFNILLDDVAITHLSYGKEFAKAIEDKQVAQQESERVKFIVAKTEQEKIAAVIKAQGEAEAAKLISSAVKEYGNSLLEIRKLEAAKEIAENLSKSKNVTYFPASFNILLNPKNL	not soluble
ASEKLRSKLMSADEAAQFVNHGDKVGFSGFTGAGYPKALPTAIANRAKEAHGAGNDYAIDLFTGASTAPDCDGVLAEADAIRWRMPYASDPIMRNKINSGSMGYSDIHLSHSGQQVEEGFFGQLNVAVIEITRITEEGYIIPSSSVGNNVEWLNAAEKVILEVNSWQSEDLEGMHDIWSVPALPNRIAVPINKPGDRIGKTYIEFDTDKVVAVVETNTADRNAPFKPVDDISKKIAGNFLDFLESEVAAGRLSYDGYIMQSGVGNVPNAVMAGLLESKFENIQAYTEVIQDGMVDLIDAGKMTVASATSFSLSPEYAEKMNNEAKRYRESIILRPQQISNHPEVIRRVGLIATNGLIEADIYGNVNSTNVSGSRVMNGIGGSGDFTRNGYISSFITPSEAKGGAISAIVPFASHIDHTEHDVMVVISEYGYADLRGLAPRERVAKMIGLAHPDYRPLLEEYYARATSGDNKYMQTPHDLATAFDFHINLAKNGSM	not soluble
MGSDKIHHHHHHMFVGFDYGSANCAVGIMQGDEVSLLPLSTDSAYLPSTLYAMDRELIAEAVYRALPAELKADYAKKRAAQLSRARMVRHELDLDAESPAVFVGEQAVAAYLEMPEEGFYVRSPKSFLGATGLRPEQVALFEDIVTLMMQHIKVRAEAVLVQKGMASKDEARITHAVIGRPVNFQGIGGEESNRQAEAILTLAAKRAGFVDVAFLFEPLAAGMDYEAGLKADQTVLVVDVGGGTTDCSVVKMGPSHKASFDRSRDCLGHSGQRIGGNDLDIALAMNAFMPHFGLGSLMSNGKPMPSNPFWNAVAVNDISAQREFATLSTRKLIDELIKEAEQPNLLKRLLKVQQQQLSYQIVRLAERAKIALSDAHTTESSLEFIEAMLSAEVNRDCFENAIEPSLGKIEALMHQALTQAAKSLTGNGLAPEELSVEAGTAECQPDVIYVTGGTARSPAIYAKITSLYPDTPVVVGDHFGSVTAGLTRWAQKHFAQ	not soluble
MLFSMESILSSTKPKLEPPPKLEPEVTINEQVVDLPRSNTRLSEPSTSASVLEHDLKFGESRKRSRSLGDEPTEDEDGVPVRKANKRNHSTSSAADSSSDDAKDDDDDDDSTSRKSMSGHRKSSHAKPPYSYIALIAMSILNSPEKKLTLSEICEFIINKFEYYKEKFPAWQNSIRHNLSLNDCFVKVARGPGNPGKGNYWALDPNCEDMFDNGSFLRRRKRYKKNSDTYHEMMSHHPMPFPPFLPQGMPFPPRMMHPMANIPMLGHPMNPRAVPNMPAFFIPQNIDSQKLLSMMASRIMPMDAPVSSGQKRTSSSSSPNENGSSAVSDKLSA	soluble
MGSDKIHHHHHHMNRSGTISGNNFQSTAAQTTAGPRESRLAASVCRIAPFYDFILRRKIMRQKIPLLASFKLTFRCNLSCLACPFHQRAGEEKANMSWSLARASLDALKHQGTLIVVFEGGEPFLWRDGRHDLHDLVNYAGRLFPRVAVTTNGTFPLDVPADILWVSLDGLKETHDRLRSGSFDRVWENLEQCSHGRLFVHFTINRENRHDIRPLLEKLKGIPAFRGMTVQLFYPYGQGEASLALSDLERKTVLEEVVAMKKQGFPILNSAGRLTAMINNDWRCHDDILINVDPDGAITPGCYVKSRGRINCRNCGFSPVSEASGALDLFPGSLKAGWSIFLK	not soluble
MDFLDFEKVFSFYSKATKKGFSPFFVPALEKAEEPAGNFFLDRKGNLFSIREDFTKTVLNHRKRYSPDSQIKVWYADFVYRYSGSDLVAEYQLGLEKVPRNSLDDSLEVLEIIVESASEFFEGPVIVEIGHTGVYEDLLKEIPKDLHEKVLNLIDTKNLAEIEFLSHMKKIDLSRVEKIIEDSIYRRSPEHLKTMDLPLSVREDLLSASSFLQEKFPTVSVEIDLTLARTIEEYCGLIFTIYDTSSSRLVAAGGEYTVNGEKGVGGSIFLEGKTC	soluble
MAHHHHHHMQAITASTPSQQYSVGAGIEKPLGVTTSADWMTMYERKPHGNSTLFELEAMVAKRMEFLAWVDQQINSPQAKNFDSVLDAIIARLPEERRSSAATDGSRVKMISLGYDETAAGGCSDRRSSSRGSTGSAAGANQAASIVFAPEEDVTSHLLCRFAFCMSERWRDWLVRTERVLLTARIKMEMAKRPFTFLVDLMKRNGLPCAPLTDKQLADPMLQEYLEYRRVKAESARESEGRVENYYAVPLSLATRLIKKRYVLCRAGQAILFRDQVQEVFLTVFCARLNRGLHNAYLARVKQQALEEETAKSTVMAMLDAFLQQFISDPVDTLQEGVAGSVRARDVQRLAQAHFPPCMRAIDWHLRREGHLKHHGRFMYGLFLKSIGLSLEDSLELFATLMKVKGGGSVEAFAKTAYGYNVRHNYGMEGKKMSYSSASCATILGLPPVVDQHDCHGCPFRFRDEGALRTMLGKETENPKGCDYPSVRPTPGDIEDIVSDSKAQHYTRACYKYFMATHPGARRDTLFRSPYEYYSVSLEFETPSDGTESARPSAVPGKRTSVVLNEDVLRFRTSP	not soluble
LLLGDEAIAQAALDAGLSGVYAYPGTPSTEITEYIQMAPITSERNIHNRWCANEKTAMEAALGMSFVGKRALVCMKHVGMNVAADCFINSAITGVKGGLIVVAADDPSMHSSQNEQDSRFYGDFSLIPMYEPSNQQEAYDMVYNGFEFSEKIGEPILMRMVTRLAHSRSGVENKAQKPQNEISFSEDPRQFILLPGNARKRYKVLLTRQEEFIKASEESPYNRYIDGPNKKTGIVACGIGYNYLMENYPEGCEYPVLKVGQYPLPKKQLMQLIDACDEILVLEDGQPFVEKQLKGYLGIGLKVKGRLDGTLSQDGELNPDTVARALGKENSSEFNVPNIVEMRPPALCEGCGHRDMYITLTQVLKEEYPTHKVFSDIGCYTLGANAPFNAINSCVDMGASITMAKGASDGGLHPAVAVIGDSTFTHSGMTGLLDCVNENANVTIVISDNETTAMTGGQDSAGTGRLEAICAGLGVDPAHIRVVVPLK	not soluble
MEKGTPPTHDSDNWMGRAKEIGNGGWDQFQFLFFDPNGYLYAVSNDKLYKASPPQSDTDNWIARATEIGSGGWSGFKFLFFHPNGYLYAVRGQRFYKALPPVSNQD	soluble
MNTLPDTHVREASGCPSPITIWQTLLTRLLDQHYGLTLNDTPFADERVIEQHIEAGISLCDAVNFLVEKYALVRTDQPGFSAGAPSQLINSIDILRARRATGLMTRDNYRTVNNITRGKHPEAKQ	not soluble
GPGSMSFPKEWTDTWNLFDDRRSGSVTHSDVKHIIRSLGRRYTEAEFNELLHDIPDPIPYQSFVEIMQKPYNGPTEDDLRTALRAFDGNDSGQLKLSELITLLTSLGEKMPEAEVKQLLSEVHTNEDGRVNIDDLARFLCTPLPTTQPDIAELQKQLAGIS	soluble
MADVALRITETVARLQKELKCGICCSTYKDPILSTCFHIFCRSCINACFERKRKVQCPICRSVLDKRSCRDTYQITMAVQNYLKLSEAFKKDIENMNTFKSLPPEKMFMESQMPLDITIIPENDGKRCAPDFAIPFLPVRRKRPSRPQPPSAFAEEPAEPVEPPEPATKQPVELQSRVFPLEKLKKDVETSTETYKISREELKNVDIEEYINTLRENSTEIDEIDALFQLMPTMRQFLRNNINQLMEKFHVAPPKKSEKPANRRVSFASSQDLENIKIMTASESLETPPEPIQKLAQKPEVFKSTQNLIDLNLNTAVKKPVVVASDDDEVVEDSEGELQIDEDDLANVTCATSVRNIGKSLCAEYIREGRSISQKSTAYLYAIARKCVIVGRQWLVDCITTGLLLSEADYTITSCSSTIPVKIPPSIGSEMGWLRSRNDEHGKLFAGRRFMILRKFTMNPYFDYKQLIELVQQCGGEILSCYENLSPEKLYIIFSKHSKAIEESKNIENLYKCDVVTMEWVLDSISEYLILPTQPYKAVDSIGCLQD	not soluble
NRYAKLCMEREINKRTVLMQEMELENYKKINQANDKYMELLHNSNHYMRTVYGLLEQDNKDEAINIMDSVLTEYEEGELIEYSTNSILNTILSEYYDKSKTNHIEFNIFVEPGFNIECVESMDLVAMVSNLISNAYEAALKSDEKKIKVQMYMQNDGSFIIIKIENSFSGEIVSQGDRLLTTKKDGNIHGVGIESVEKVAEKYDGWVSTSWGNKSFRTMLVLNNSYVV	not soluble
MSLRPTMADVAREAGVSLSTVDRVLNLRADVRTDTAQRIAAAAALLGFHAKGVIEQRILNDKPTVRLGFLLQKSGVAFYKGLAQALSNAAATFTRARVQVVIGYLDDLDPATVAQRLLALGDQVDGVGMVAVDHPRVRDAVASLQVAGVPVVALISELAGLGSASYVGVDNRLMGRTAGWFVTRLAGSPGSAAVMVSSQRFQCQELCEMSFRSYLSSHSTDWELLASRLTLEDDDFAYGNALDLLSGEPELSALYVAGGGVAGVLRALRELQQQQIRLPVVVCHDLTPLTREALKADLVQVVLSHPIVQVAEQTVRALVAASSDLTRVARVTVPIQVDVSESIAEGHHHHHH	soluble
MEKKITQEGLARMIDKGMGTLLALPEIEKKKKSGDLPDNFKMEDGFGVYRVEVGGNEYLCVTNILCNKCERVNGKVKRCEAHKKKRKARKVRKDGDVADDTSDREKLGGLRHVNDEEEEEDKIEGAVTPDFVMTPGIGGAIILVPVDAKNNDRAGPPAKGLNHVKGILVRGAGNIPQFIPNDRLTKAHKLRFDNYIEGELNLVNGKEVFVPNNLGAAKMDEKNAQDVAKAAVADKVDQKVVDAIGKDMVVAVQVDVADNGMPVMKVLEGKPKDKETPVGIIVKANDQVQFVQIVGRELGGGKDAKMMPCTIPENGKVGDVIADVYVNKEGKAVSAKPGDAPAGAPVIGQVIVGQNDQLVFVAKGENKDDAVKKGAKMTPEMKEKLEQAQAKVQAAVTGQSADHIQEQVNRIGVPEAAATSAANGGNNAGGGGSSAEVRSVGFGAQQFGGSQFARPIPAGGGGGGSGGYGAGGGGSGGYGAGGAGGARNSASNGSYGSSANEVKSVGFGAQQYGGSVFAKPSGTGGGYVSAGSSARKSGESGAGGGGAGGGKAGGAKNSASYGSSANEVKSVGFGAQQYGGSVFIRK	not soluble
MSLTEATVERIRLFLIESPIKMARLQGVGNVKGTVKRVLIELTSSDGVIGWGEAAPWEVFTGTPEAAFSALDIYLRPIALGKPVRRIRALMAELDRALVGHAEAKVAIEMALLDIVGKSSGLSVADLLGGRVRDTIPLSFSIADPDFPADLERMRKMVPDGNVIYKVKTGVKPHREDLDHLEAIRKEFGDKVDLRVDYNQALAPFGAIKILRDVEEFAPTFIEQPVPRKYLDVMAQLTAALETPVLADESCFDRRDMMEVVRREAADAVSIKLMKAGGLFEAQAIMAIADIAGLPGYGGTLWEGGIGLAAGTQLIAATPGISLGCEFYMPHHVLTEDVLEERVANRAGHVVVPDGPGLGIRVSEASVRANAQVLAEGHHHHHH	not soluble
